The record followed here is paper PMC7772510 (Molecules and Cells, 2020).

The assay deals with T1, His6-αX I-domain (UniProt P20702 146-332).
T1 sequence (looked up): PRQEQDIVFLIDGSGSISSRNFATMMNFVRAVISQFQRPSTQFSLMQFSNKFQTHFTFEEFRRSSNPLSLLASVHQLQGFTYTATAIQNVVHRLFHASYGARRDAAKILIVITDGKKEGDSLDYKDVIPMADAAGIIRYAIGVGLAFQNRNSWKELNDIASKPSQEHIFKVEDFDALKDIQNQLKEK
Briefly: ELISA. In general terms: An ELISA detects its analyte on a solid surface through an enzyme-linked reagent.

Regarding NLDEDIIAEENIVSRSEFPESWLWNV (domain or fragment, human, UniProt P01024 750-775, looked up) [GST-αNTN], the binding result is on record as “binds”.
